{"source": "patent US20150307576A1", "about": "“FGF-10 COMPLEXES” (PERMEON BIOLOGICS, INC., priority 2012, published 2015)", "molecules": {"B1": {"name": "p16: human p16 tumor suppressor protein alone, SEQ ID NO: 5 (protein, listed as Homo sapiens)", "chain": "MEPAAGSSMEPSADWLATAAARGRVEEVRALLEAGALPNAPNSYGRRPIQVMMMGSARVAELLLLHGAEPNCADPATLTRPVHDAAREGFLDTLVVLHRAGARLDVRDAWGRLPVDLAEELGHRDVARYLRAAAGGTRGSNHARIDAAEGPSDIPD"}, "B2": {"name": "FGF10-p16: fusion protein of FGF10 domain and full length human p16, SEQ ID NO: 6 (protein)", "chain": "MEQKLISEEDLGSGRHVRSYNHLQGDVRWRKLFSFTKYFLKIEKNGKVSGTKKENCPYSILEITSVEIGVVAVKAINSNYYLAMNKKGKLYGSKEFNNDCKLKERIEENGYNTYASFNWQHNGRQMYVALNGKGAPRRGQKTRRKNTSAHFLPMVVHSGHGGGGSGGGGSMEPAAGSSMEPSADWLATAAARGRVEEVRALLEAGALPNAPNSYGRRPIQVMMMGSARVAELLLLHGAEPNCADPATLTRPVHDAAREGFLDTLVVLHRAGARLDVRDAWGRLPVDLAEELGHRDVARYLRAAAGGTRGSNHARIDAAEGPSDIPDGHGHHHHHH"}, "B3": {"name": "FGF10 E158K/K195A: FGF10 mutant with two substitutions E158K/K195A; domain variant in SEQ ID NO: 8 (protein)", "chain": "GRHVRSYNHLQGDVRWRKLFSFTKYFLKIEKNGKVSGTKKENCPYSILEITSVEIGVVAVKAINSNYYLAMNKKGKLYGSKEFNNDCKLKERIEKNGYNTYASFNWQHNGRQMYVALNGKGAPRRGQKTRRANTSAHFLPMVVHS"}, "B4": {"name": "FGF10 R78A: FGF10 mutant with one substitution R78A; domain variant in SEQ ID NO: 9 (protein)", "chain": "B3 chain with R15A, K95E, A132K"}, "B5": {"name": "tetramutant: variant of FGF10 domain with four substitutions at positions 78, 114, 158, 195, SEQ ID NO: 10 (protein)", "chain": "B3 chain with R15A, T51R, K95A"}}, "key": {"[1]": {"tested_on": "SKOV-3 ovarian cancer cells", "experiment": "SKOV-3 cell viability, MTS assay", "format": "cell-based, human", "conditions": "100 uM, 4-hour treatment, 3 days of growth"}, "[2]": {"experiment": "Stability following multiple freeze/thaw cycles (protein concentration, analytical SEC)", "format": "physicochemical", "conditions": "two freeze/thaw cycles", "description": "The stability of this cell penetrating domain of FGF10 was evaluated following multiple freeze/thaw cycles. To do this, protein concentration measurements and analytical size exclusion chromatography were carried out comparing protein which had undergone zero, one, or two freeze/thaw cycles. […] The study indicated about 75% stability of this protein after two freeze/thaw cycles.\nPurified protein was subjected to the indicated number of freeze/thaw cycles (each freeze/thaw cycle consisted of snap-freezing the protein in liquid nitrogen, placing it at −80° C. for a minimum of two hours, and then thawing it on ice) and analyzed by size exclusion chromatography. After each thaw, the protein was subjected to 20,000×g centrifugation to remove any precipitation. The protein concentration of each sample was measured by A280, considering the extinction coefficient (24540) and molecular weight (19.57 kDa). In each case 40 μL of the protein was applied to a Superdex 75 10/300 GL column (GE Healthcare). The column running buffer was the same as the protein storage buffer (20 mM Hepes, pH 7.5, 0.5 M NaCl)."}, "Hela cells": {"tested_on": "Hela cells", "experiment": "Cell penetrating activity, anti-myc flow cytometry", "format": "cell-based", "conditions": "1 uM, 20 minutes", "description": "On the day prior to the assay, 10^6 Hela cells were plated in each well of a 6-well plate and incubated in the 37° C. CO2 incubator overnight. The cells were washed once with PBS and then were replenished with 1 mL of serum-free DEMEM (A) or media containing 1 uM of the FGF10 domain construct FGF10-myc (B, C, and D) and were incubated for 20 minutes in the 37° C. CO2 incubator. The cells were then washed three times with ice-cold PBS. For (C) and (D), cells were treated with 0.25% trypsin/EDTA and washed three times with PBS. The cells in (D) were fixed for 10 minutes with 1 mL 4% formaldehyde and permealized for 5 minutes with 0.2% saponin. Then 10 uL of 0.1 mg/mL FITC labeled chicken polyclonal anti-myc tag antibody (Abcam #1394) was added to all the cells and incubated at 4° C. in the dark for 2 hours. The cells were washed three times with ice cold PBS. Cells in (A) and (B) were detached with 1 mL 10 mM EDTA. Cells were analyzed using a BD Accuri™ C6 flow cytometer."}, "[3]": {"experiment": "Cellular distribution, microautoradiography (MARG)", "format": "in vivo, mice", "description": "To obtain specific cell-type uptake information in select organs, microautoradiography analysis was performed on selected organs collected at various time points. For microautoradiography analysis (MARG), animals were anesthetized and blood collected, as described above. Tissue samples are trimmed to be approximately 0.5 cm^2, placed into cryosectioning embedding media on a cryosectioning sample holder, and frozen in isopentane that is cooled with liquid nitrogen. Frozen samples were stored in liquid nitrogen until analysis by MARG. For analysis, tissues were cryosectioned at 5 μm under darkroom conditions, and collected onto glass slides that are pre-coated with photographic emulsion (Kodak NTB photographic emulsion). Slides were placed in sealed light-safe slide boxes and allowed to expose the photographic emulsion for 7 days before being developed, fixed and stained with hematoxylin and eosin. All slides were examined for cellular localization using light microscopy."}, "[4]": {"conditions": "mouse, in vivo"}, "[5]": {"conditions": "mouse, in vivo", "remark": "listed apart in the source"}, "[6]": {"tested_on": "HepG2, Hela and SW626 cells", "experiment": "Internalization of p16 fusion proteins, flow cytometry", "format": "cell-based", "conditions": "2 uM, overnight", "description": "On the day prior to the assay, HepG2 (hepatoma), Hela cells, and 10^6 SW626 cells (ovarian) were plated in each well of a 6-well plate and incubated in the 37° C. CO2 incubator. The cells were washed once with PBS and then were replenished with 2 mL of growth media containing 2 uM of p16, +36GFP-p16 or FGF10-p16 proteins and were incubated overnight in the 37° C. CO2 incubator. The cells were then washed once with PBS and detached with 0.25% trypsin/EDTA. The cells were fixed for 10 minutes with 1 mL 4% formaldehyde and permeabilized for 5 minutes with 0.5 mL 0.4% saponin. Then 2.5 uL of 1 mg/mL FITC labeled chicken polyclonal anti-myc tag antibody (Abcam #1394) was added to all the cells and incubated at 4° C. in the dark for 2 hours, except for cells treated with +36GFP-p16 (GFP itself was used for detection). The cells were washed twice with ice cold PBS and were analyzed using a BD Accuri™ C6 flow cytometer."}, "FGFR2b receptor": {"target": "FGFR2b receptor (Homo sapiens, UniProt P21802)", "sequence (P21802 22-822 isoform P21802-3 limits assumed)": "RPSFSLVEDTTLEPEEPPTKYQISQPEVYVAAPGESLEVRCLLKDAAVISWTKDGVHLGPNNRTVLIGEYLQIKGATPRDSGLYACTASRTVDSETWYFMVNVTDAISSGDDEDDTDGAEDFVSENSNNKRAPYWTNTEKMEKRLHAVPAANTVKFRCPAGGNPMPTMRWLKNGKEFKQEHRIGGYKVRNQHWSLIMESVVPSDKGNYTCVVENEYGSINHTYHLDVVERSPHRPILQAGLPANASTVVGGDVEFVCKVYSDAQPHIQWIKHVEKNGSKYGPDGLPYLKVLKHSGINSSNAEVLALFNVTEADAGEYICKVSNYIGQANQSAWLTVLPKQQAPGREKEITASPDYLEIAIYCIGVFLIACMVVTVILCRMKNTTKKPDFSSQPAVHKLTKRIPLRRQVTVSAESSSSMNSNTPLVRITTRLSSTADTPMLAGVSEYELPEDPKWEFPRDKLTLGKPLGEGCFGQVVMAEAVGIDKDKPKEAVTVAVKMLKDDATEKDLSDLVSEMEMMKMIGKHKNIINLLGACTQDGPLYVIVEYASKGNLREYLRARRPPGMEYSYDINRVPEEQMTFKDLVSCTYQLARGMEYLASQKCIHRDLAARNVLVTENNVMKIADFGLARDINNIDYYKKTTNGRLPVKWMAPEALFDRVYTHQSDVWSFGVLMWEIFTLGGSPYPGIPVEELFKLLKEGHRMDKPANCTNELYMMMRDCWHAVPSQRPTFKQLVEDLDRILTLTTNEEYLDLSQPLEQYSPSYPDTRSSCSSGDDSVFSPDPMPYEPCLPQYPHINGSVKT", "conditions": "relative to unmodified FGF10; cited from earlier work"}, "mitogenic activity [7]": {"tested_on": "mitogenic activity", "conditions": "relative to wild-type; cited from earlier work"}, "mitogenic activity [8]": {"tested_on": "mitogenic activity", "experiment": "Mitogenic activity of FGF10 variants", "conditions": "tetramutant vs native FGF10"}, "[9]": {"conditions": "trypsin, fixed and permeabilized"}}, "note": "Numbering of substitutions follows the chain as printed. In names and notes the source's numbering stands. Read-outs that look alike come from different tables or passages of the source.", "data": [{"molecule": "CC(=O)c1c(C)c2cnc(Nc3ccc(N4CCNCC4)cn3)nc2n(C2CCCC2)c1=O", "note": "[PD-0332991]", "values": [{"measurement": "inhibition of cell proliferation", "setting": "[1]", "value": "complete inhibition of cell proliferation"}]}, {"molecule": "FGF10", "values": [{"measurement": "stability after freeze/thaw cycles", "setting": "[2]; listed as His6-FGF10-myc", "value": 75, "unit": "%"}, {"measurement": "stability after freeze/thaw cycles", "setting": "[2]; listed as Hisx6-FGF10-Myc", "value": "about 75%"}, {"measurement": "cells with protein present on the cell membrane", "setting": "Hela cells; no trypsin", "value": 98.8, "unit": "%"}, {"measurement": "cells stained positive for FGF10 after trypsin treatment (internalized)", "setting": "Hela cells; [9]", "value": "almost all the cells stained positive"}, {"measurement": "cellular distribution in kidney", "setting": "[3]; kidney MARG", "value": "uniformly distributed throughout the kidney"}, {"measurement": "cellular distribution in liver", "setting": "[3]; liver MARG", "value": "uniformly distributed throughout the liver tissue including in hepatocytes"}, {"measurement": "partitioning between plasma compartment and blood cell compartment", "setting": "[4]", "value": "favor the plasma compartment"}, {"measurement": "levels of injected protein in liver, spleen, kidney, urinary bladder, adrenal gland, thyroid gland", "setting": "[5]", "value": "high levels"}]}, {"molecule": "B1", "values": [{"measurement": "cell penetration", "setting": "[6]", "value": "does not"}]}, {"molecule": "B2", "values": [{"measurement": "treated cells stained positive", "setting": "[6]; [9]", "value": "~30", "unit": "%"}]}, {"molecule": "B3", "values": [{"measurement": "decrease in binding to the FGFR2b receptor", "setting": "FGFR2b receptor", "value": "approximately 4 fold"}]}, {"molecule": "B4", "values": [{"measurement": "decrease in binding to the FGFR2b receptor", "setting": "FGFR2b receptor", "value": "approximately 4 fold"}, {"measurement": "mitogenic activity", "setting": "mitogenic activity [7]", "value": "significant decrease"}]}, {"molecule": "B5", "values": [{"measurement": "mitogenic activity", "setting": "mitogenic activity [8]", "value": "reduced mitogenic activity"}]}]}
